# In publication PMC3963902, “Esterase LpEst1 from Lactobacillus plantarum: A Novel and Atypical Member of the αβ Hydrolase Superfamily of Enzymes” (PLoS ONE, 2014):
# Assays:
# [1] = substrate: CC(=O)Oc1ccc([N+](=O)[O-])cc1; experiment: spectrophotometric p-nitrophenol release; assay type: biochemical, Lactiplantibacillus plantarum; conditions: 50 mM sodium phosphate, pH 7.0, 30 °C
# Description: (§1) spectrophotometric p-nitrophenol release on LpEst1
# [2] = substrate: CCCC(=O)Oc1ccc([N+](=O)[O-])cc1; experiment: spectrophotometric p-nitrophenol release; assay type: biochemical, Lactiplantibacillus plantarum; conditions: 50 mM sodium phosphate, pH 7.0, 30 °C
# Description: as §1
protein,measurement,setting,value
"LpEst1 (Lactiplantibacillus plantarum) (protein, homodimer) MPTINSIQTTVNGVVKIVKPFNNDIAGEQFDPHVLQTLTAFKQPAILENDLAALRSGSLTPAIADPVGDAVTVQSRNITALNRTVSVEWLTPQNVINHTVLVYFHGGAFYGGVPGNNTVLLKLVAAKSHCEILNVDYSLAPEAPAPAGILDGLAIFQYLEQRDAETMITVAGDSAGANVIMAATNLNQQLGSNRINQQLLLYPVTAPNADHAGPLWDLAAFPIIDSQRAILTNYHDLFRQLDSIMTDYYVPENFDSHSPLISPLHQENFTMTPPTTIMVGEFDPFRPQAWAYAQRLAAADTATTFIQYQGLNHAFAPLVDQYWQSQDVAQVMAAALI",Km,[1],380 ± 50 µM
same,Vmax,[1],75 µmol/min/mg
same,kcat,[1],40.4 ± 2 s⁻¹
same,Km,[2],200 ± 100 µM
same,Vmax,[2],8 µmol/min/mg
same,kcat,[2],4.4 ± 0.3 s⁻¹
